Test results published in US20140223606, “COMPOSITIONS AND METHODS COMPRISING SEQUENCES HAVING MEGANUCLEASE ACTIVITY” (PIONEER HI BRED INTERNATIONAL INC, published 2014).

What was measured:
Conditions in all cases: tags: NLS, 6xHis
MHP14(L14-07) = target: T1, MHP14(L14-07) (artificial); assay: cell_activity; yeast 37 C; 28 C: 0.5
T1 chain: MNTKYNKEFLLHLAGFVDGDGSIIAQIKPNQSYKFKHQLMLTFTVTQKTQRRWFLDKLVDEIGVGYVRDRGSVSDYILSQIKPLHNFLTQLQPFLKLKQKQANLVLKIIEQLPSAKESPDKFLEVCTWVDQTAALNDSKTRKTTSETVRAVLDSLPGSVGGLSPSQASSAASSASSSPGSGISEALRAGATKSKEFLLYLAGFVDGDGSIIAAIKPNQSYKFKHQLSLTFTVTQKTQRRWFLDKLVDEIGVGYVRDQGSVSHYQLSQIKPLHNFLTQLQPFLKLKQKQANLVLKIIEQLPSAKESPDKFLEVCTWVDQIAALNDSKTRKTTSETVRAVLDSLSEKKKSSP
Method: A 3 mL culture of selective media (MP Biomedical) was inoculated with a single colony of the yeast screening strain and grown at 30° C. overnight. On the following day, a 50 ml YPD culture (MP Biomedical) was started with 2 ml of the overnight culture and grown at 30° C. overnight. On the following day, the cells were harvested by centrifugation at 4000 rpm. The cells were resuspended in 100 ml ice cold water and centrifuged again. The cells were then washed in 1.2 M sorbitol, followed by treatment with 2 ml of 10 mM Tris pH 8.0, 1 mM EDTA, 100 mM Lithium acetate, 10 mM DTT, 0.6M sorbitol for 30 minutes at 30° C. with shaking. The cells were recovered by centrifugation, washed in 40 ml 1.2M sorbitol and finally resuspended in 250 microliters of 1.2M sorbitol. 50 microliter aliquots were transferred to test tubes on ice. Up to 5 microliters of DNA (100-500 nanograms) were added. The suspension was transferred to a 0.2 cm electroporation cuvette, on ice. Electroporation was performed with a pulse charge at 1.5 kV, 200 ohms, 25 microF (pulse time of 5 milliseconds). 1 mL YPD media (MP Biomedical) was added and the cells were allowed to recover at 30° C. for 1-2 hr. The cells were centrifuged, resuspended in 100 uL 1M sorbitol and plated on selective media lacking leucine and containing 2% galactose. The resulting yeast colonies were incubated at various temperatures ranging from 22 to 37 degrees Celsius for 7-10 days. I-CreI and meganucleases derived from it have maximal activity at or above 37 degrees Celsius. Screening was performed at a range of temperatures from 22 to 37 degrees in order to observe increases in activity at lower temperatures which are relevant to certain biological systems (eg. plant cells, plant cell cultures, etc). At that time the red/white sectoring phenotype, indicative of meganuclease activity was observed. Colonies with increased white sectoring over the parental meganuclease (indicating colonies expressing a meganuclease with increased meganuclease activity), also referred to as “hits” and sometimes completely white, were isolated for further analysis. […]

LIG3-4(B73) = target: T2, LIG3-4(B73) (artificial); assay: cell_activity; yeast 30 C; 22 C: 4
T2 chain: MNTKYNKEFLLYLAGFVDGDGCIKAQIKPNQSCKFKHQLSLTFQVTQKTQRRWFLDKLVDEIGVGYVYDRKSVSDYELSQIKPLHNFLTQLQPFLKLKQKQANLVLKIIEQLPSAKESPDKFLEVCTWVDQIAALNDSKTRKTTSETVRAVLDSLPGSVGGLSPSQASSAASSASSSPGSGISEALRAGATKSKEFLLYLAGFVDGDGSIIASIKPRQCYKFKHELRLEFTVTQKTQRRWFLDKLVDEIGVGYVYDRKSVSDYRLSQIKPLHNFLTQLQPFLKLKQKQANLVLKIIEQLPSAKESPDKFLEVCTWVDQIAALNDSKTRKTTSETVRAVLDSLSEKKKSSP
Method: (§1) A 3 mL culture of selective media (MP Biomedical) was inoculated with a single colony of the yeast screening strain and grown at 30° C. overnight. On the following day, a 50 ml YPD culture (MP Biomedical) was started with 2 ml of the overnight culture and grown at 30° C. overnight. On the following day, the cells were harvested by centrifugation at 4000 rpm. The cells were resuspended in 100 ml ice cold water and centrifuged again. The cells were then washed in 1.2 M sorbitol, followed by treatment with 2 ml of 10 mM Tris pH 8.0, 1 mM EDTA, 100 mM Lithium acetate, 10 mM DTT, 0.6M sorbitol for 30 minutes at 30° C. with shaking. The cells were recovered by centrifugation, washed in 40 ml 1.2M sorbitol and finally resuspended in 250 microliters of 1.2M sorbitol. 50 microliter aliquots were transferred to test tubes on ice. Up to 5 microliters of DNA (100-500 nanograms) were added. The suspension was transferred to a 0.2 cm electroporation cuvette, on ice. Electroporation was performed with a pulse charge at 1.5 kV, 200 ohms, 25 microF (pulse time of 5 milliseconds). 1 mL YPD media (MP Biomedical) was added and the cells were allowed to recover at 30° C. for 1-2 hr. The cells were centrifuged, resuspended in 100 uL 1M sorbitol and plated on selective media lacking leucine and containing 2% galactose. The resulting yeast colonies were incubated at various temperatures ranging from 22 to 37 degrees Celsius for 7-10 days. I-CreI and meganucleases derived from it have maximal activity at or above 37 degrees Celsius. Screening was performed at a range of temperatures from 22 to 37 degrees in order to observe increases in activity at lower temperatures which are relevant to certain biological systems (eg. plant cells, plant cell cultures, etc). At that time the red/white sectoring phenotype, indicative of meganuclease activity was observed. Colonies with increased white sectoring over the parental meganuclease (indicating colonies expressing a meganuclease with increased meganuclease activity), also referred to as “hits” and sometimes completely white, were isolated for further analysis.

LIG3-4(B75) = target: T3, LIG3-4(B75) (artificial); assay: cell_activity; yeast 30 C; 22 C: 4
T3 chain: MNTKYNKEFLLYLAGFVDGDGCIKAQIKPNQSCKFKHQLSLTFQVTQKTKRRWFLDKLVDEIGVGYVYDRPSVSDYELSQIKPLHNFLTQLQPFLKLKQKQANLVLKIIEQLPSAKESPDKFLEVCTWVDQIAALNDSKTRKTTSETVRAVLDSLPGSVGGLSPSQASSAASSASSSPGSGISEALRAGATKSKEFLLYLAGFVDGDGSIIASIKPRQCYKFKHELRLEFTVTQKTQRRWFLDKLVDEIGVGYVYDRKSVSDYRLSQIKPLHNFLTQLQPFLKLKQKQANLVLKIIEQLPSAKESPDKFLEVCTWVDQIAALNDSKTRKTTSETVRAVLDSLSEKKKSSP
Method: as §1

LIG3-4(B76) = target: T4, LIG3-4(B76) (artificial); assay: cell_activity; yeast 30 C; 22 C: 4
T4 chain: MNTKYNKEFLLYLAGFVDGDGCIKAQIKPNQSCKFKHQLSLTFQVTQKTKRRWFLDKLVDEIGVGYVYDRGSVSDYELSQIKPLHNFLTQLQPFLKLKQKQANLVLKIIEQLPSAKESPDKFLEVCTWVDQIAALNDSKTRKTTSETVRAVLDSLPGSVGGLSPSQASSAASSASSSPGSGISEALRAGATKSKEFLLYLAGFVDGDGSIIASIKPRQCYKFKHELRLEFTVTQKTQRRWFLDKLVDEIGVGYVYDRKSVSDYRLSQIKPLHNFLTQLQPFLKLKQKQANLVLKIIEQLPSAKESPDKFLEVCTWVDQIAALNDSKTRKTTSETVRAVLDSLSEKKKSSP
Method: as §1

LIG3-4(B78) = target: T5, LIG3-4(B78) (artificial); assay: cell_activity; yeast 30 C; 22 C: 4
T5 chain: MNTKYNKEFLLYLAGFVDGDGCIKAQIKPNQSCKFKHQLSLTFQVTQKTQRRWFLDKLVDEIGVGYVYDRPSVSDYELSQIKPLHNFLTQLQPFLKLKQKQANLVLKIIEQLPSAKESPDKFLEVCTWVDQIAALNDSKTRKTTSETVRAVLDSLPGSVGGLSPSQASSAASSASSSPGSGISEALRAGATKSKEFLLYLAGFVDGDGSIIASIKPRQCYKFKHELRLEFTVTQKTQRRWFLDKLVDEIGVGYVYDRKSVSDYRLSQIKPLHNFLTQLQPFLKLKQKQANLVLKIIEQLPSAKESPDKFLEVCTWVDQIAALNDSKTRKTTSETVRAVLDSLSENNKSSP
Method: as §1

B1: MHP14 recognition site (dsDNA)
DNA 1: CAAACAGATTCACGTCAGATTT
DNA 2: AAATCTGACGTGAATCTGTTTG
activity (MHP14(L14-07)): 4 score 0-4

B2: LIG3-4 recognition site (dsDNA)
DNA 1: ATATACCTCACACGTACGCGTA
DNA 2: TACGCGTACGTGTGAGGTATAT
activity (LIG3-4(B73)): 4 score 0-4 | activity (LIG3-4(B75)): 4 score 0-4 | activity (LIG3-4(B76)): 4 score 0-4 | activity (LIG3-4(B78)): 4 score 0-4
